Reference: US20210253725A1 (BIONTECH, published 2021)

T1: CD27 expressed on the cell surface of HT1080_CD27 cells (human, UniProt P26842 20-260)
T1 construct: whole, on cells; species not restated for the HT1080 transfectant
T1 sequence (looked up): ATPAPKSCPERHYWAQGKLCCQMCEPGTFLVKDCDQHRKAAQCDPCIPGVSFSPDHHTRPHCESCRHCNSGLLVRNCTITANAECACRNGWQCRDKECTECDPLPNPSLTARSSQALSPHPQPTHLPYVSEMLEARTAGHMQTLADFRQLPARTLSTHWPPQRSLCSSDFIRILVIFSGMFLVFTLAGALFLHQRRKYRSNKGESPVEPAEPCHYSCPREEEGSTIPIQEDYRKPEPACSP

T2: CD27 protein (His-tagged, Sino Biological Inc. 10039-H08B1) (human, UniProt P26842 20-192)
T2 construct: bought protein coated on ELISA plates; also called TNFRSF7; not shown: His tag
T2 sequence (looked up): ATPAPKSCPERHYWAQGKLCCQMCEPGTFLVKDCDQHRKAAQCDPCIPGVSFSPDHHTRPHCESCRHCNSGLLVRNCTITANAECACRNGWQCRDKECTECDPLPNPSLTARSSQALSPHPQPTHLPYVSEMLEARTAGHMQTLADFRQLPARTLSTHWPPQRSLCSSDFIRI

B1: P018.S.10.A.E02 (antibody, V domains shown)
VH: QEQLEESGGDLVKPEGSLTLTCTASGFSFSSSFYMCWVRQAPGKGLEWVACIYAEDSDYTYYASWAKGRFTISKTSSTTVTLQMTSLTAADTATYFCAREILYPTNTDSFDLWGPGTLVTVSS
VL: AFELTQTPSSVEAAVGGTVTIKCQASESFSSRLAWYQQKPGQPPKLLIYRASTLASGVPSRFKGSGSGTDFTLTISDLESADAAAYYCQAYVGISSGGYAFGGGTEVVVG
notes: V regions on human Ig constant parts; also called AB27_176
B2: P018.S.02.A.B01 (antibody, V domains shown)
VH: QSVEESGGRLVTPGTPLTLTCTVSGMDLSSYSMSWVRQAPGEGLEYIGFIGSSGGTYYASWAKGRFTISRTSTTVDLNITSPTTEDTATYFCARMLAGVYTRLDLWGQGTLVTVSS
VL: AQVLTQTPSSVSAAVGGTVTINCQASQSISSSYCSWYQQKPGQPPKLLIYKASTLASGVPSRFKGSGSGTQFTLTISDVQSDDAATYYCAGDFIASSGNAFGGGTEVVVK
notes: V regions on human Ig constant parts; also called AB27_29
B3: P018.S.06.A.B01 (antibody, V domains shown)
VH: QSLEESGGGLVKPEGSLTLTCTASGFSFSSSYWICWVRQAPGKGLEWIGCIYAGTFSDTFYASWTKGRFTISKTSSTTVTLQMTSLTGADTATYFCARGHYYYTDNYTANGYGRGLTRLDLWGQGTLVTVSS
VL: AAVLTQTPSPVSAAVGGTVTISCQASQSVYNNNNLAWYQQKAGQPPKLLIYGASNLESGVPSRFKGSGSGTQFTLTISDLESDDAASYYCAGGYTTSGDNGFGGGTEVVVK
notes: V regions on human Ig constant parts; also called AB27_98
B4: P018.S.03.A.G05 (antibody, V domains shown)
VH: QSLEESGGDLVKPEGSLTLTCTASGFSFSSGGWICWVRQAPGRGLEWIACIYVGSSGTTHYASWAKGRFTISKTSSTTVTLQMTSLTAADTATYFCARGAVYGGGSYDNFHLWGPGTLVTVSS
VL: AYDMTQTPASVSEPVGGTVTIKCQASQSIGSYLSWYQQKPGQRPKLLIYAASTLASGVQSRFKGSGSGTDYTLTISGVQSDDAATYYCQQGYNISNLDNTFGGGTEVVVK
notes: V regions on human Ig constant parts; also called AB27_58
B5: P018.S.01.A.A06 (antibody, V domains shown)
VH: QSVEESGGRLVTPGTPLTLTCTVSGIDLSTYAMSWVRQAPGKGLEWIGIIYGSGYTYYASWAKGRATISKTSSTTVDLKITSPTTEDTATYFCASGYGISSGNFLHFNLWGQGTLVTVSS
VL: AYDMTQTPASVEVAVGGTVTIKCQASESIYFNLAWYQQKPGQRPKLLIYRASTLASGVSSRFKGSGSGTQFTLTISGVESADAATYYCQQGYDSSHIDNAFGGGTEVVVT
notes: V regions on human Ig constant parts; also called AB27_3
B6: P018.S.07.A.D05 (antibody, V domains shown)
VH: QSLEESGGDLVKPEGSLTLTCTASGFSFSSSYWICWVRQAPGKGLEWIGCMITGRGNTYYATWAKGRFTISKTSSTTVTLQMTSLTAADTATYFCARGPGGADPINLWGPGTLVTVSS
VL: DVVMTQTPASVSEPVGGTVTIKCQASQNIYNNLAWYQQKPGQPPKLLIYLASTLASGVPSRFEGSGSGTEFTLTISGVQSDDAATYYCQSTYDGSSYVPNAFGGGTEVVVK
notes: V regions on human Ig constant parts; also called AB27_124
B7: P018.S.05.A.D06 (antibody, V domains shown)
VH: QSVEESGGRLVTPGTPLTLTCTVSGFSLSSYWMSWVRQAPGKGLEWIGFIYGGSGDKYYASWAKGRFAISKTSTTVDLKITSPTTEDTATYFCARGGDGDGTYSSLWGQGTLVTVSS
VL: AQVLTQTPSPVSAAVGGTVTISCQSSESVAGKNLAWYQQKPGQPPKVLIYGTSNLASRVPSRFRGSGSGTQFTLTISDLESDDAATYYCQGYYSGGIYGFGGGTEVVVE
notes: V regions on human Ig constant parts; also called AB27_88
B8: P018.S.09.A.F06 (antibody, V domains shown)
VH: QSVEESGGRLVTPGGSLTLTCSVSGIDLSSYAMNWVRQAPGKGLEWIGIISTGGSTYYANWAKGRFTISKTSTTVDLKITSPTTEDTATYICARDVGGTTVPYYFDLWGPGTLVTVSS
VL: AYDMTQTPASMEVAVGGTVTIKCQASESISSWLAWYQQKPGQPPKPLIYEASRLASGVPSRFKGSGSGTEFTLTISGVESADAATYYCQQGYGSSDVHNIFGGGTEVVVK
notes: V regions on human Ig constant parts; also called AB27_158
B9: P018.S.05.A.E03 (antibody, V domains shown)
VH: QSLEESGGRLVTPGGSLTLTCTVSGIDLSSYAMGWVRQAPGKGLEWIGYITYGGSTYYANWVNGRFTISKTSTMVDLKMTSLTAADTATYFCARLRAPYYYRIYFNLWGPGTLVTVSS
VL: ALVMTQTPSSVEAAVGGTVTIKCQASQNIISALAWYQQKPGQPPKLLIYDASNLESGVPSRFKGSGSGTDFTLTISDLESADAATYYCQGAYDTNINDFGGGTEVVVK
notes: V regions on human Ig constant parts; also called AB27_89
B10: P018.S.06.A.A05 (antibody, V domains shown)
VH: QSLEESGGRLVTPGTPLTLTCTVSGIDLSSYAMGWVRQAPGKGLELIGLIYASNRTHYATWAKGRFTISKSSTTVDLKATSLTTEDTATYFCGRYGRGSGGYYYGMDLWGPGTLVTVSS
VL: DVVMTQTPASVEAAVGGTVTIKCQASQSGDNYLSWYQQKSGQPPKLLIYLASTLASGVPSRFRGSRSGTEYTLTISDLESADAATYYCQNYCAGSGVCVGVAFGGGTEVVVK
notes: V regions on human Ig constant parts; also called AB27_97
B11: P018.S.10.A.H05 (antibody, V domains shown)
VH: QSLEESGGRLVTPGTPLTLTCTASGFSLSTYYMSWVRQAPGKGLEWIGIIYTSGSTYYASWAKGRFTISRNSTTVDLKITSPTTEDTATYFCARSRVPGDTTGLYYFNLWGPGTLVTVSS
VL: ALVMTQTPASVSAAVEGTVTINCQASENIYSNLAWYQQKPGQPPKLLIYHTSNLASGVPSRFKGSGAGTEFTLTISDLESDDAATYYCQSAYDSSSSDTFTFGGGTEVVVK
notes: V regions on human Ig constant parts; also called AB27_186
B12: P018.S.03.A.D04 (antibody, V domains shown)
VH: QEHLEESGGGLVQPGGTLTLTCKASGIDFSSSYYMCWVRQAPGKGLERLACTYNRDGSTYYASWAKGRFTISKTSSTTVTLQMTSLTVADTATYFCARDDGYPGSGYVLNLWGPGTLVTVSS
VL: DVVMTQTPASVEAAVGGTVTIRCQASQSVSNYFSWYQQKPGQPPKLLIYGASNLESGVPSRFKGSGSGTEFTLTISGVQSDDAATYYCQGGYYSSNTDNNSFGGGTEVVVK
notes: V regions on human Ig constant parts; also called AB27_49
B13: P018.S.09.A.E02 (antibody, V domains shown)
VH: QSLEESGGRLVTPGTPLTLTCTASGFTISSHHMTWVRQAPGEGLEWLGVIFPSGHTYYTSWAKGRFTISRTSTTVDLKMASLTIEDTATYFCVRDVGYFTLWGQGTLVTVSS
VL: AQVLTQTPSPVSAAVGGTVTISCQSSESVGGNNWLAWYQQKLGQPPKLLIYGASTLASGVPSRFSGSGSGTQFTLTISEVQSDDAATYYCQGYYSDVTNAFGGGTEVVVE
notes: V regions on human Ig constant parts; also called AB27_153
B14: P018.S.10.A.C01 (antibody, V domains shown)
VH: QSVEESGGRLVTPGTPLTLTCTLSGFSLSNYAMSWVRQAPGKGLEWIGVIYTSGTTHYASWAKGRFTISKTSTTVDLRMTSLTTEDTATYFCARSRYYGSGWGGYYFNLWGQGTLVTVSS
VL: DVVMTQTPSPVSAAVGGTVTINCQASEDIYSLLAWYQQKPGQRPKLLIYGASNLESGVPSRFKGSGSGTEYTLTISGVQSADAATYYCHGGTYTGSADINAFGGGTEVVVE
notes: V regions on human Ig constant parts; also called AB27_170
B15: P018.S.06.A.H05 (antibody, V domains shown)
VH: QSLEESGGDLVQPEGSLTLTCKASGFDFSSTYWICWVRQAPGKGLEWIGCIDDSYAYTYYASWAKGRFTISKPSSTTVTLQVTSLTVADTATYFCARDGYPGYGVGSFNLWGPGTLVTVSS
VL: AIVMTQTPSSKSVPVGDTVTINCQASESVYSNNRLAWFQQKPGQPPKLLIYLASTLASGVPSRFKGSGSGTQFTLTISDVVSDDAATYYCAGYKSYSDDGTGFGGGTEVVVK
notes: V regions on human Ig constant parts; also called AB27_112
B16: P018.S.09.A.C02 (antibody, V domains shown)
VH: QSVEESGGRLVTPGTPLTLTCTVSGIDLSSYVMSWVRQAPGKGLEWIGYIDYGGTAYYASWAKGRFTISKTSTTVELKITSPTIEDTATYFCARGGYGGYTLVTALWGPGTLVTVSS
VL: DIVMTQTPASVSEPVGGTVTIKCQASQSISSYLSWYQQKPGQPPKLLIYSTSTLASGVSSRFKGSGSGTEYTLTISDLESADAATYYCQTYYGGGPFGNGFGGGTEVVVK
notes: V regions on human Ig constant parts; also called AB27_147

Assays:
[1] = biological target: T1, CD27 expressed on the cell surface of …; assay: HT1080_CD27 cells, imaging
[2] = biological target: T2, CD27 protein (His-tagged, Sino …); assay: ELISA, coated His-tagged CD27
[3] = biological target: T1, CD27 expressed on the cell surface of …; assay: cell-based or functional assay
Also: test concentration or dose not given here.

Binder	Cellular binding assay [RFU] [1] [RFU]	ELISA [abs. corr.] [2] [abs. corr.]	Functional assay Cross-linked by F(ab′)2 fragment IL-8 [3] [abs. corr.]	Functional assay IL-8 [3] [abs. corr.]
B1	395	3.02	1.39	0.23
B2	332	2.93	1.42	0.538
B3	279	2.94	1.18	0.106
B4	269	2.98	1.27	0.031
B5	287	3.09	1.92	0.566
B6	329	3.08	1.64	-0.032
B7	323	2.93	1.23	0.338
B8	218	2.98	2.03	0.58
B9	322	3.07	1.92	0.208
B10	140	2.95	1.09	0.433
B11	313	2.96	1.11	-0.155
B12	270	3.1	1.23	0.513
B13	305	2.98	1.61	0.172
B14	266	2.93	1.1	-0.046
B15	308	2.98	1.56	0.278
B16	323	2.94	1.07	0.07
